Results on 1 molecule are retold here after US20240358849A1 (SUZHOU FUSE BIOSCIENCES, published 2024).

Where only a bound is given, the exact number is not on record here.

Experiment [1] deals with T1, human Fibroblast Activation Protein (FAP), soluble antigen (human, UniProt Q12884 26-760, biotinylated when immobilized on streptavidin sensors).
T1 construct: also called hFAP; biotinylated FAP
Put plainly: BLI per 6.1.3, human FAP.
Experimental: (§1) Binding constants (kₒₙ, koff and KD) were determined after referencing by subtracting responses from sensors without immobilized antigen. Data were fit globally with Gator software using a 1:1 binding interaction while fitting the responses to an unlinked Rₘₐₓ. All protein samples were diluted in PBST-BSA. Typical protocol for KD determination:

The target in experiment [2] is T1, human Fibroblast Activation Protein …. Put plainly: BLI per 6.1.3, human FAP. The source holds these as a separate data set.
Experimental: as §1
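For KD in this document: biolayer interferometry with immobilized antigen on sensors, antibody association up to 240 s then dissociation up to 420 s, reference-subtracted, global 1:1 fit with unlinked Rmax.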
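For kon in this document: biolayer interferometry with immobilized antigen on sensors, antibody association up to 240 s then dissociation up to 420 s, reference-subtracted, global 1:1 fit with unlinked Rmax.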

T1 sequence (Q12884 26-760 limits assumed): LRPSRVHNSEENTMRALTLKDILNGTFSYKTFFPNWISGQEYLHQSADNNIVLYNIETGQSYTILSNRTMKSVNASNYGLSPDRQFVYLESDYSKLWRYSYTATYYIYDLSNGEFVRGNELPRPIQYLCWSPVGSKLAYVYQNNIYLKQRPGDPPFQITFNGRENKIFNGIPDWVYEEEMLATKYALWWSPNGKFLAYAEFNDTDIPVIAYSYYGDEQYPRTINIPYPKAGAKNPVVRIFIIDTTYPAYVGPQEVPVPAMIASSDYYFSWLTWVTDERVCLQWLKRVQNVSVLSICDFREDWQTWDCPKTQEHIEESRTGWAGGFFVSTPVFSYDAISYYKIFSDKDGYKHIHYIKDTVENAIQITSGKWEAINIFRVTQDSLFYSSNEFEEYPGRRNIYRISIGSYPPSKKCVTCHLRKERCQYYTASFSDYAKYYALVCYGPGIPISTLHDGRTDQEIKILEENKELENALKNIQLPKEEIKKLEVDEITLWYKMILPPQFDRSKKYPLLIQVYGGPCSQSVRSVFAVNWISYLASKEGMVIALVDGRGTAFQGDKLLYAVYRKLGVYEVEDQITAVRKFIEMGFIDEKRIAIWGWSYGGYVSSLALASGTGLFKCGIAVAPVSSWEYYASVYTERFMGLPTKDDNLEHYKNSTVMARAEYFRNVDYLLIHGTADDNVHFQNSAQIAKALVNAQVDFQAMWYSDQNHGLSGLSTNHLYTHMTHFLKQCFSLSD

B1: anti-FAP antibody 872-5V1 (antibody, V domains shown)
VH: EVQLVESGGGLVQPGGSLRLSCAASGFTFRGYIMSWVRQAPGKGLEWVSWIGPEGSRTGYADSVKGRFTISRDNSKNTLYLQMNSLRAEDTAVYYCARLLYGTWFDYWGQGTLVTVSS
VL: DIQMTQSPSSLSASVGDRVTITCRASQSISSYLNWYQQKPGKAPKLLIYAASSLQSGVPSRFSGSGSGTDFTLTISSLQPEDFATYYCQQGTLLLPTFGQGTKVEIKR
notes: KD by BLI per 6.1.3 (monovalent Fab-Fc)
The Kd is the concentration at which binding is half-saturated. Lower therefore signals higher affinity. One may read the kon as a measure of how fast the partners come together. In experiment [1], B1 had a Kd below 0.1 nM and a kon of 625000 M⁻¹ s⁻¹. The “improvement of the affinity over parent 872-5 (fold)” value in experiment [2] was above 80 fold.
